± gives the uncertainty stated by the source.
Assay: self-splicing fitness, log relative to wild type (ln ratio); higher = more splicing; Tetrahymena group I intron in knt gene, E. coli kanamycin selection, DiMSum; sequences stand for … in CUCUCU…GGAGGGAAAAGUUAUCAGGCAUGCACCUGGUAGCUAGUCUUUAAACCAAUAGAUUGCAUCGGUUUAAAAGGCAAGACCGUCAAAUUGCGGGAAAGGGGUCAACAGCCGUUCAGUACCAAGUCUCAGGGGAAACUUUGAGAUGGCCUUGCAAAGGGUAUGGUAAUAAGCUGACGGACAUGGUCCUAACCACGCAGCCAAGUCCUAAGUCAACAGAUCUUCUGUUGAUAUGGAUGCAGUUCACAGACUAAAUGUCGGUCGGGGAAGAUGUAUUCUUCUCAUAAGAUAUAGUCGGACCUCUCCUUAAUGGGAGCUAGCGGAUGAAGUGAUGCAACACUGGAGCCGCUGGGAACUAAUUUGUAUGCGAAAGUAUAUUGAUUAGUUUUGGAGUACUCGUGGUCG
Method in brief: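 Colonies from six replicate transformations of E. coli BL21(DE3) were pooled and amplicon-sequenced on an Illumina HiSeq 2500. The library placed an intron with all eight P1ex-region nucleotides randomised inside the knt kanamycin-resistance gene on pET-22b(+), and cells grew overnight at 37°C or 30°C on LB agar with or without 25 μg/mL kanamycin (plus 100 μg/mL carbenicillin, 50 μM IPTG, 0.2% rhamnose). Fitness is the DiMSum error-weighted combination of wild-type-normalised replicate fold changes, kanamycin versus none.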

Row | Sequence | self-splicing fitness (ln) (30 °C) | self-splicing fitness (ln) (37 °C)
1 | GUCAAGCAAUAUUACGUAAC | -1.33 ± 0.17 | -0.545 ± 0.14
2 | GAGUAGCAAUAUUACGAACC | -1.17 ± 0.12 | -0.433 ± 0.14
3 | ACUAAGCAAUAUUACGGCAA | -0.655 ± 0.089 | -0.133 ± 0.1
4 | CCUCAGCAAUAUUACGUAGC | -3.9 ± 0.19 | -2.73 ± 0.28
5 | CCUCAGCAAUAUUACGUUGC | -3.32 ± 0.28 | -2.52 ± 0.32
6 | CAGUAGCAAUAUUACGCGUU | -2.21 ± 0.23 | -1.64 ± 0.23
7 | AUCUAGCAAUAUUACGGCAU | 0.455 ± 0.096 | 0.24 ± 0.1
8 | AAGUAGCAAUAUUACGGUUU | -0.353 ± 0.064 | -0.458 ± 0.098
9 | ACCUAGCAAUAUUACGAGUC | -2.53 ± 0.3 | -2.78 ± 0.48
10 | GCGUAGCAAUAUUACGAAGU | -2.22 ± 0.15 | -1.11 ± 0.16
11 | UAUAAGCAAUAUUACGGAGC | – | -2.14 ± 0.28
12 | AACCAGCAAUAUUACGUGCG | -0.832 ± 0.053 | -0.365 ± 0.064
13 | AGGUAGCAAUAUUACGUCGC | -2.37 ± 0.023 | -1.48 ± 0.037
14 | UGCUAGCAAUAUUACGGUCA | 0.0813 ± 0.11 | 0.529 ± 0.13
15 | CCAUAGCAAUAUUACGUGGU | -4 ± 0.23 | -1.73 ± 0.13
16 | GCCCAGCAAUAUUACGCCAG | -1.92 ± 0.13 | -2.32 ± 0.23
17 | CCGGAGCAAUAUUACGGACG | -2.82 ± 0.19 | -1.31 ± 0.25
18 | UGGUAGCAAUAUUACGCGGG | -2.93 ± 0.2 | -2.47 ± 0.2
19 | GGGCAGCAAUAUUACGUCGC | -1.69 ± 0.1 | -1.54 ± 0.14
20 | GCCGAGCAAUAUUACGAUGG | -2.48 ± 0.26 | -2.96 ± 0.31
21 | CACGAGCAAUAUUACGGUUA | -2.76 ± 0.17 | -2.48 ± 0.16
22 | AUGAAGCAAUAUUACGCGAA | -1.15 ± 0.087 | -0.0789 ± 0.093
23 | GCACAGCAAUAUUACGCGAA | -0.472 ± 0.066 | 0.308 ± 0.071
24 | AACCAGCAAUAUUACGAACU | -0.369 ± 0.079 | 0.35 ± 0.1
25 | CGCCAGCAAUAUUACGGUCA | -0.14 ± 0.066 | 0.542 ± 0.092

Row | Sequence | self-splicing fitness (ln) (30 °C) | self-splicing fitness (ln) (37 °C)
26 | CUUGAGCAAUAUUACGCGAC | -3.55 ± 0.28 | -0.595 ± 0.16
27 | ACAAAGCAAUAUUACGCACU | -0.0924 ± 0.069 | 0.264 ± 0.089
28 | ACUGAGCAAUAUUACGGACC | -2.23 ± 0.26 | -1.14 ± 0.26
29 | CUUAAGCAAUAUUACGUGAG | -3.73 ± 0.19 | -2.14 ± 0.14
30 | ACUGAGCAAUAUUACGUCGA | -3.59 ± 0.22 | -2.07 ± 0.18
31 | ACGGAGCAAUAUUACGACCG | -2.1 ± 0.17 | -1.78 ± 0.25
32 | GUACAGCAAUAUUACGUCGC | -2.57 ± 0.15 | -0.812 ± 0.16
33 | AAGGAGCAAUAUUACGAAUC | – | -1.46 ± 0.36
34 | UCAUAGCAAUAUUACGUAGC | -4.12 ± 0.3 | -0.156 ± 0.15
35 | UGUGAGCAAUAUUACGUGAG | -1.67 ± 0.14 | -1.52 ± 0.18
36 | GGCAAGCAAUAUUACGAUCU | -0.22 ± 0.097 | -0.162 ± 0.13
37 | GGGGAGCAAUAUUACGUAGG | -2.68 ± 0.2 | -1.85 ± 0.21
38 | AGGUAGCAAUAUUACGGCAU | -0.129 ± 0.014 | 0.107 ± 0.033
39 | CGGUAGCAAUAUUACGGUAA | -2.99 ± 0.29 | -3.12 ± 0.3
40 | GGGUAGCAAUAUUACGUGCG | -0.234 ± 0.097 | -0.0569 ± 0.12
41 | CUUUAGCAAUAUUACGCUCU | -2.15 ± 0.22 | -1.3 ± 0.26
42 | CGUAAGCAAUAUUACGGUGA | -3.29 ± 0.17 | -3.18 ± 0.22
43 | CUGAAGCAAUAUUACGGUGG | -1.02 ± 0.065 | -0.466 ± 0.094
44 | CGAUAGCAAUAUUACGUCAC | -3.44 ± 0.26 | -2.34 ± 0.25
45 | AUAUAGCAAUAUUACGGCAU | -0.195 ± 0.089 | 0.155 ± 0.12
46 | UGAGAGCAAUAUUACGCUAA | -2.28 ± 0.31 | -2.53 ± 0.31
47 | CAACAGCAAUAUUACGAUUC | -0.966 ± 0.087 | -0.733 ± 0.11
48 | UAUUAGCAAUAUUACGCGGU | -3.62 ± 0.36 | -1.8 ± 0.37
49 | GGGAAGCAAUAUUACGGUAU | -2.78 ± 0.18 | -1.63 ± 0.15
50 | GGGGAGCAAUAUUACGAGUU | -3.08 ± 0.45 | –

Row | Sequence | self-splicing fitness (ln) (30 °C) | self-splicing fitness (ln) (37 °C)
51 | AGGAAGCAAUAUUACGGACU | -0.293 ± 0.11 | -0.668 ± 0.097
52 | UCUUAGCAAUAUUACGUGGC | – | -1.6 ± 0.42
53 | CAUAAGCAAUAUUACGCCGC | -2.82 ± 0.38 | -1.59 ± 0.47
54 | GCCCAGCAAUAUUACGGGUG | -1.58 ± 0.048 | -0.819 ± 0.054
55 | AUCUAGCAAUAUUACGAUCC | -1.97 ± 0.18 | -0.573 ± 0.26
56 | CAGGAGCAAUAUUACGGAGU | -2.74 ± 0.17 | -2.21 ± 0.25
57 | UGUUAGCAAUAUUACGGUCA | 0.281 ± 0.096 | 0.169 ± 0.11
58 | ACCCAGCAAUAUUACGAGUA | -2.39 ± 0.12 | -1.02 ± 0.079
59 | UAAAAGCAAUAUUACGAAAU | -3.04 ± 0.16 | -2.45 ± 0.21
60 | CCACAGCAAUAUUACGUGGU | -4.13 ± 0.14 | -3.65 ± 0.17
61 | CAGCAGCAAUAUUACGGGCU | -3.74 ± 0.17 | -2.51 ± 0.16
62 | UGCUAGCAAUAUUACGCUCA | -0.263 ± 0.15 | 0.646 ± 0.16
63 | CUUCAGCAAUAUUACGUUAA | -2.84 ± 0.24 | -3.51 ± 0.46
64 | ACGGAGCAAUAUUACGAUUU | -2.33 ± 0.12 | -1.65 ± 0.15
65 | GGCUAGCAAUAUUACGCUCG | -2.15 ± 0.24 | -0.647 ± 0.19
66 | UAGAAGCAAUAUUACGAGAC | -2.67 ± 0.35 | -1.99 ± 0.3
67 | GCUUAGCAAUAUUACGCGCG | -0.0422 ± 0.094 | -0.149 ± 0.13
68 | CUGAAGCAAUAUUACGUCUC | – | -1.47 ± 0.18
69 | GAUAAGCAAUAUUACGUCGU | -1.68 ± 0.072 | -0.373 ± 0.086
70 | AAUGAGCAAUAUUACGCACA | -2.31 ± 0.29 | -1.38 ± 0.2
71 | AUUUAGCAAUAUUACGUUCC | -1.54 ± 0.26 | -1.23 ± 0.49
72 | GUCUAGCAAUAUUACGUGUG | -0.5 ± 0.063 | -0.649 ± 0.079
73 | CGGUAGCAAUAUUACGGAGA | -3.87 ± 0.32 | -2.72 ± 0.21
74 | GCAGAGCAAUAUUACGUCUG | -3.95 ± 0.33 | -3.13 ± 0.47
75 | CAGGAGCAAUAUUACGUCUC | – | -3.07 ± 0.3

Row | Sequence | self-splicing fitness (ln) (30 °C) | self-splicing fitness (ln) (37 °C)
76 | AUGGAGCAAUAUUACGCACC | -2.45 ± 0.4 | -1.26 ± 0.22
77 | ACCCAGCAAUAUUACGUGCU | -4.5 ± 0.23 | -1.67 ± 0.12
78 | GACCAGCAAUAUUACGUGUU | -3.73 ± 0.096 | -2.44 ± 0.11
79 | UUUCAGCAAUAUUACGGAUC | -1.14 ± 0.07 | -0.289 ± 0.089
80 | CUCGAGCAAUAUUACGAUUG | -2.53 ± 0.34 | -2.04 ± 0.3
81 | AAGCAGCAAUAUUACGACGU | -0.298 ± 0.067 | 0.18 ± 0.077
82 | AAAAAGCAAUAUUACGUUGG | -3.28 ± 0.14 | -1.15 ± 0.11
83 | CAUGAGCAAUAUUACGAGGG | -3.79 ± 0.22 | -1.03 ± 0.14
84 | GGUGAGCAAUAUUACGCAGU | -2.13 ± 0.32 | -2.45 ± 0.41
85 | ACAUAGCAAUAUUACGCGGC | -3.77 ± 0.18 | -2.8 ± 0.3
86 | AGGCAGCAAUAUUACGUCGC | -2.48 ± 0.12 | -2.07 ± 0.14
87 | UAGAAGCAAUAUUACGCCCG | -0.762 ± 0.18 | 0.487 ± 0.23
88 | UAGGAGCAAUAUUACGUAUG | -3.04 ± 0.22 | -1.71 ± 0.16
89 | CAUUAGCAAUAUUACGGAUU | -3.12 ± 0.2 | -1.23 ± 0.21
90 | GCGCAGCAAUAUUACGACAA | -0.598 ± 0.12 | -0.342 ± 0.11
91 | CUUAAGCAAUAUUACGCACG | -1.62 ± 0.14 | -0.394 ± 0.16
92 | UCAUAGCAAUAUUACGUGUA | -2.35 ± 0.13 | -1.84 ± 0.14
93 | ACUUAGCAAUAUUACGGCCA | -0.83 ± 0.13 | -0.409 ± 0.19
94 | AAGCAGCAAUAUUACGCGUA | -1.57 ± 0.11 | -0.515 ± 0.1
95 | UACCAGCAAUAUUACGCUUU | -1.86 ± 0.093 | -0.589 ± 0.1
96 | UCUCAGCAAUAUUACGUCUA | -2.95 ± 0.28 | -1.38 ± 0.15
97 | CCUCAGCAAUAUUACGGUCA | -3.48 ± 0.26 | -2.04 ± 0.15

Reference: the supplement of paper PMC7877785
